According to US20230227538A1 (published 2023):
Where a chain is given by its changes, count along the chain named.

What was measured:
SpikeS2P = assay: SPR
[1] = molecular target: SARS-CoV-2 Spike receptor binding domain (RBD) (SARS-CoV-2, UniProt P0DTC2 319-541); assay: flow
SC2 spike ECD = assay: SPR

B1: mNb6 (VHH)
VHH: QVQLVESGGGLVQAGGSLRLSCAASGYIFGRNAMGWYRQAPGKERELVAGITRRGSITYYADSVKGRFTISRDNAKNTVYLQMNSLKPEDTAVYYCAADPASPAYGDYWGQGTQVTVSS
Kd (SpikeS2P): 0.45 nM

B2: Nb6 (AeroNab6, NbCOV6, clone pNbCOV006A) (VHH)
VHH: B1 VHH with Y27I, Y105P
EC50 [1]: 30 nM

B3: NbCOV11 (VHH)
VHH: HVQLVESGGGLVQAGGSLRLSCAVSGASAERVGWFRRAPGKEREFVAAIGANGGSTNYLDSVKGRFTISRDNAKNTVYLQMNSLKPQDTAVYYCAARNLETFDYTYWGRGTQVTVSS
Kd (SC2 spike ECD): 141 nM
